Source: US6274553A, “Method for stabilizing peptides and freeze-dried medicinal compositions containing peptides obtained by using the method” (Japan Energy Corporation, priority 1997, dated 2001)

Experiments:
Type in all cases: physicochemical
[1] = Storage stability of lyophilized HV1C3 at 60° C., pH with tartaric acid (Experiment Example 3); settings: saccharose, mannitol
Procedure: Hirudin variant HV1C3, purified saccharose, and mannitol were dissolved in purified water to a final concentration of 6 mg/ml (0.86 mM), 1.6 mg/ml (4.7 mM), and 10 mg/ml (55 mM), respectively. The resulting solution was divided into four equal portions. Three of these portions were adjusted to pHs 5.0, 5.5, and 6.0 using 30 mM tartaric acid. The peptide solutions for which the pH was thus adjusted and the peptide solution without pH adjustment were filtered through a 0.22 μm membrane filter. The filtrates were filled into 6 ml vials in the amount of 1 ml for each vial. 50 such vials were prepared for each pH of the solution, 200 vials in total. All these 200 vials were lyophilized.
The lyophilized samples were stored in an incubator at 60° C. and removed from the incubator after 1, 2, 3, 4, 5, 6, 7, and 8 weeks, respectively. 1 ml of purified water was added to each vial removed. Solutions further diluted 50-fold were used to measure the amount (percentage) of the hirudin variant HV1C3 remaining in the lyophilized sample in the same manner as in Experiment Example 1.

[2] = Storage stability of lyophilized HV1C3 at 60° C., tartaric acid concentration (Experiment Example 4)
Procedure: Hirudin variant HV1C3 and purified saccharose were dissolved in purified water to a final concentration of 6 mg/ml (0.866 mM) and 1.6 mg/ml (4.7 mM), respectively. The resulting solution was divided into four equal portions. Three of these portions were adjusted to pH 5.5 using 5 mM of tartaric acid, 10 mM of tartaric acid, and 30 mM of tartaric acid, respectively. Mannitol was added to a solution without pH adjustment to a concentration of 10 mg/ml (55 mM). These solutions were filtered through a 0.22 μm membrane filter. The filtrates were filled into 6 ml vials in the amount of 1 ml for each vial. 50 such vials were prepared for each pH of the solution, 200 vials in total. All these 200 vials were lyophilized.
The lyophilized samples were stored in an incubator at 60° C. and removed from the incubator after 1, 2, 3, 4, 5, and 6 weeks, respectively. 1 ml of purified water was added to each vial removed. The amount (percentage) of the hirudin variant HV1C3 remaining in the lyophilized sample was determined in the same manner as in Experiment Example 1.

[3] = Amount of isomers in lyophilized HV1C3 stored at 60° C., saccharose/mannitol (Experiment Example 5); settings: pH 5.5, 5 mM tartaric acid
Procedure: In the same manner as in Experiment Example 1, hirudin variant HV1C3, purified saccharose, and mannitol were dissolved in purified water to a concentration of 6 mg/ml (0.86 mM) of hirudin variant HV1C3 and concentrations of purified saccharose and mannitol respectively shown in Table 6. The solution was adjusted to pH 5.5 using 5 mM tartaric acid to obtain a peptide solution. The peptide solutions for which the pH was adjusted and the peptide solution before pH adjustment were filtered through a 0.22 μm membrane filter. The filtrates were filled into 6 ml vials in the amount of 1 ml for each vial and lyophilized.
The lyophilized samples were stored in an incubator at 60° C. and removed from the incubator after 4 and 8 weeks, respectively. […] was added to each vial removed. Solutions further diluted 50-fold were subjected to liquid chromatography to measure a peak area percentage of isomers other than the hirudin variant HV1C3.

[4] = tartaric acid 0 mM, without pH adjustment, mannitol 10 mg/ml, saccharose
[5] = tartaric acid 5 mM, pH 5.5, saccharose
[6] = tartaric acid 10 mM, pH 5.5, saccharose
[7] = tartaric acid 30 mM, pH 5.5, saccharose
[8] = no saccharose, mannitol 10 mg/ml
[9] = purified saccharose 1.6 mg/ml, mannitol 10 mg/ml
[10] = purified saccharose 1.6 mg/ml, no mannitol

B1: hirudin variant HV1C3: Hirudin variant having the amino acid sequence shown by Sequence No. 1 (JP Laid-open No. 173798/1992) (protein)
chain: VVYTDCTESGQNLCLCEGSNVCGQGNKCILGSDGEKNQCVTGEGTPKPQSHNQGDFEPIPEDAYDE
[1]; pH 5.0, 30 mM tartaric acid
  Remaining peptide (%) 1 wk: 97.6%
  Remaining peptide (%) 2 wks: 96.1%
  Remaining peptide (%) 3 wks: 93.2%
  Remaining peptide (%) 4 wks: 91.8%
  Remaining peptide (%) 5 wks: 91.7%
  Remaining peptide (%) 6 wks: 89.9%
  Remaining peptide (%) 7 wks: 69.1%
  Remaining peptide (%) 8 wks: 86.6%
[1]; pH 5.5, 30 mM tartaric acid
  Remaining peptide (%) 1 wk: 98.4%
  Remaining peptide (%) 2 wks: 97.6%
  Remaining peptide (%) 3 wks: 95.9%
  Remaining peptide (%) 4 wks: 95.2%
  Remaining peptide (%) 5 wks: 92.4%
  Remaining peptide (%) 6 wks: 92.2%
  Remaining peptide (%) 7 wks: 91.9%
  Remaining peptide (%) 8 wks: 90.6%
[1]; pH 6.0, 30 mM tartaric acid
  Remaining peptide (%) 1 wk: 98.4%
  Remaining peptide (%) 2 wks: 97.6%
  Remaining peptide (%) 3 wks: 96.6%
  Remaining peptide (%) 4 wks: 96.1%
  Remaining peptide (%) 5 wks: 94.6%
  Remaining peptide (%) 6 wks: 93.6%
  Remaining peptide (%) 7 wks: 91.8%
  Remaining peptide (%) 8 wks: 92.2%
[1]; without pH adjustment
  Remaining peptide (%) 1 wk: 96.9%
  Remaining peptide (%) 2 wks: 94.2%
  Remaining peptide (%) 3 wks: 92.3%
  Remaining peptide (%) 4 wks: 90.9%
  Remaining peptide (%) 5 wks: 89.9%
  Remaining peptide (%) 6 wks: 88.2%
  Remaining peptide (%) 7 wks: 87.2%
  Remaining peptide (%) 8 wks: 86.1%
[2]; [4]
  Remaining peptide (%) 1 wk: 97.0%
  Remaining peptide (%) 2 wks: 94.0%
  Remaining peptide (%) 3 wks: 92.0%
  Remaining peptide (%) 4 wks: 91.0%
  Remaining peptide (%) 5 wks: 87.8%
  Remaining peptide (%) 6 wks: 86.5%
[2]; [5]
  Remaining peptide (%) 1 wk: 98.8%
  Remaining peptide (%) 2 wks: 98.6%
  Remaining peptide (%) 3 wks: 97.6%
  Remaining peptide (%) 4 wks: 97.5%
  Remaining peptide (%) 5 wks: 97.0%
  Remaining peptide (%) 6 wks: 96.9%
[2]; [6]
  Remaining peptide (%) 1 wk: 98.5%
  Remaining peptide (%) 2 wks: 98.1%
  Remaining peptide (%) 3 wks: 97.2%
  Remaining peptide (%) 4 wks: 96.9%
  Remaining peptide (%) 5 wks: 96.4%
  Remaining peptide (%) 6 wks: 96.1%
[2]; [7]
  Remaining peptide (%) 1 wk: 97.9%
  Remaining peptide (%) 2 wks: 96.8%
  Remaining peptide (%) 3 wks: 96.1%
  Remaining peptide (%) 4 wks: 94.7%
  Remaining peptide (%) 5 wks: 94.1%
  Remaining peptide (%) 6 wks: 93.5%
[3]; [8]
  The amount of isomers (%) 4 weeks: 6.93%
  The amount of isomers (%) 8 weeks: 7.99%
[3]; no saccharose, no mannitol
  The amount of isomers (%) 4 weeks: 5.72%
  The amount of isomers (%) 8 weeks: 6.13%
[3]; [9]
  The amount of isomers (%) 4 weeks: 7.23%
  The amount of isomers (%) 8 weeks: 8.58%
[3]; [10]
  The amount of isomers (%) 4 weeks: 4.90%
  The amount of isomers (%) 8 weeks: 5.00%
